Source: the supplement of paper PMC9170038

System: MS2 coat protein
Test: apparent KD of MS2 coat protein; designed switch direction (-1 OFF switch, 1 ON switch): -1; higher = weaker reporter binding
Method in brief: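 SNAP-549-labelled MS2 coat protein was titrated, doubling from 0.7 or 1.5 nM to 3 µM, over designed RNA switches transcribed on Illumina chips by stalled E. coli RNA polymerase. Runs were done without input, with 200 uM small-molecule ligand, or with an oligonucleotide input. Apparent KD is the per-design median over clusters of curve-fitted normalised fluorescence.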

[1] = Eterna round: R95, input ligand: microRNA oligo, concentration not stated
[2] = input ligand: microRNA oligo, concentration not stated
[3] = Eterna round: R95, input ligand: FMN 200 uM
[4] = Eterna round: R95, input ligand: none

Sequence | apparent KD of MS2 coat protein (input ligand: FMN 200 uM) | apparent KD of MS2 coat protein (input ligand: none) | apparent KD of MS2 coat protein [1] | apparent KD of MS2 coat protein [2] | apparent KD of MS2 coat protein [3] | apparent KD of MS2 coat protein [4]
GUCGUACAUGAGGAUCACCCAUGUGAGGAUAUGAGUGGUGCUGCUAGGUAGUAUAGACUCAGAAGGCGCAUGAU [Malcxlusion 2 - Jieux - Exclusion 1] (Eterna round: R97, puzzle: Exclusion 1) | 250 nM | 91.5 nM | – | – | – | –
GGUGCGUUUGUGAGGAUAUGCUGGUCCUUGGAUCAGCAGAAGGCACAUGAGGAUCACCCAUGUGGUGUCCCUCC [salish99_Bmod_Ex4_040] (puzzle: Brourd's mod of Exclusion 4) | – | – | 154 nM | – | – | –
CGCAUGUCAGGAUAUCGUGCAUACAACGAAAGUUCUAUGUGCGAGAAGGGACAUGAGGAUCACCCAUGUUAGCG [Omei Ex4 A9] (Eterna round: R97, puzzle: Exclusion 4) | 741 nM | 604 nM | – | – | – | –
CUAGCGAUUGUAGGAUAUCGGACUGUUUCAGUCUGAGAAGGACAUGAGGAUCACCCAUGUGAAGCAACGUGAGUUGCACGCUAG [JL ENG1 3.83] (Eterna round: R96, puzzle: Exclusion NG 1) | 47.9 nM | 22 nM | – | 13.8 nM | – | –
UUAUUGUAUGUAGGAUAUGCGUAUUAUUAUUGGGCAGAAGGACAUGAGGAUCACCCAUGUAUGUUGUUGUUAUAUAUUAUAUAU [Title] (Eterna round: R96, puzzle: Exclusion NG 1) | 61 nM | 47.6 nM | – | 39.3 nM | – | –
UUUAGUCGUGACAUGGGUGACAUGAGGAUCACCCAUGUCACAAGCUUCUCGCUCGUCUUAUAAUUAACCCAUGUCAC [LRO Sensor-off var1-14 mod of Stov1-13-A1 by Brourd] (Eterna round: R97, puzzle: Sensor, turn-off variant 1) | 18.6 nM | 19.8 nM | – | – | – | –
AGAUCACAUGAGGAUCACCCAUGUGAGGAUAUGGACUGAAGAGCUUCGGCUCUUCAGUCCAGAAGGCACAAUGA [EX1 #43] (Eterna round: R97, puzzle: Exclusion 1) | 40.7 nM | 28.9 nM | – | – | – | –
AGAUGUAGAUACCGAUCCUACAUGAGGAUCACCCAUGUAGCUAGACGUGCUCGCGUCGCUCGUCAGACUACCAGUAG [salish99_TOv1_r3_089] (puzzle: Sensor v3, turn-off variant 1) | – | – | 199 nM | – | 267 nM | 259 nM
GACUUCUCUGAGGAUAUUGCAUCAUACGAUUUAUAAGAAGGCAGAACAUGAGGAUCACCCAUGUGGGUUUUUAG [Bingo-Bango-30] (Eterna round: R97, puzzle: Exclusion 6) | 102 nM | 55 nM | – | – | – | –
UUUUAACAUGAGGAUCACCCAUGUGAGGAUAUCGAAAUUUAUAUUAAUAUUUAUAAAUCGAGAAGGCACAUUUU [JMF 52] (puzzle: Exclusion 1) | – | – | 139 nM | – | – | –
CUAUUGGCAGGAUAUGCUUUUUUAGACAUGAGGAUCACCCAUGUGAUGAAUUUUGGGUUUGCAGAAGGGCCUGAGU [JR_E5_Sub038] (puzzle: Exclusion 5) | – | – | 56.6 nM | – | – | –
AGGUGUUUCGUAGGAUAUGAGGAUCACCCAUAGAAGGAUAUCGAAAGAGAAGGUCUGAGGAUUACCCAGAAGGACGGGACGUCA [pwkr exNG2 2xF5 2xFMN.10] (Eterna round: R96, puzzle: Exclusion NG 2) | 570 nM | 145 nM | – | 103 nM | – | –
GUAAAGUGAGGAUAUGCUGGAGGUGUAUUCUACGUGUCGAAACAUGAGGAUCACCCAUGUAGAAGGCACGGGCG [Sozaquce] (puzzle: Exclusion 2) | – | – | 10 nM | – | – | –
GUUAAUUGUCACAUGGGUGACAUGAGGAUCACCCAUGUCACAAGCUUUUUGCUCGUCUUAUAAUUAACCCAUGUGAC [Stov1/12-A2] (Eterna round: R97, puzzle: Sensor, turn-off variant 1) | 14.7 nM | 13.9 nM | – | – | – | –
GUAAAGGGUGUCCUUAAAACAUGAGGAUCACCCAUGUGGACUAAGGAUAUCCAAAAUAAAGAUAAGGAGAAGGUAGUGGAAAGA [Usarqudi] (Eterna round: R96, puzzle: Exclusion NG 3) | 19.3 nM | 14 nM | – | 19.9 nM | – | –
AACGUCUAGGUAGGAUAUCCACCAACAGGUGGAAGGAUAUGUUCGCAGAAGGUUCGCCAACAGGCGGAGAAGGACCUACGCGUA [pwkr exNG2 2xF7 2xFMN.31] (Eterna round: R96, puzzle: Exclusion NG 2) | 11.1 nM | 116 nM | – | 24.6 nM | – | –
AAGAAACAUGAGGAUCACCCAUGUGAGGAUAUGAAAAAGAAAAGAAAAGAAAGAAGGUUCAGAAGGCACAAAGG [salish99-ex1_r3_027] (Eterna round: R96, puzzle: Exclusion 1) | – | – | – | 25.4 nM | – | –

Sequence | apparent KD of MS2 coat protein (input ligand: FMN 200 uM) | apparent KD of MS2 coat protein (input ligand: none) | apparent KD of MS2 coat protein [1] | apparent KD of MS2 coat protein [2] | apparent KD of MS2 coat protein [3] | apparent KD of MS2 coat protein [4]
UAUUAACAAGCGAGAUCCCACAUGAGGAUCACCCAUGUGCUCGUCUUAUAAGGUACUGUGACGAAAGUCACGGUACC [Sensor 3, v1 - 91 v2] (Eterna round: R97, puzzle: Sensor, turn-off variant 1) | 17 nM | 15.7 nM | – | – | – | –
CAGACACAUGAGGAUCACCCAUGUAAGGAUAUGAACUGUGGUAACGGAGCCAGCGGGUUCAGAAGGUGCGUGAC [Eternabot (L1) Solution 19] (Eterna round: R97, puzzle: Exclusion 1) | 77.9 nM | 91.4 nM | – | – | – | –
GAUCCGAUUGUCAGGAUAUUCAAAACGGCGCAAAAGAAGAAGGGACAUGAGGAUCACCCAUGUAUACGCCACCA [Usisbima] (Eterna round: R97, puzzle: Brourd's mod of Exclusion 4) | 36.7 nM | 332 nM | – | – | – | –
CAGCUGAAUGUCAGGAUAUCUAGAGCGAUAGCUCUAGAGAAGGGACAUGAGGAUCACCCAUGUCACUCCAGCUG [BmEx4/3-B4] (Eterna round: R97, puzzle: Brourd's mod of Exclusion 4) | 29.5 nM | 18.2 nM | – | – | – | –
AGCAUGCGGAAGGAUAUUUGGAGUAGCGACUCGGGAGAAGGUCUGACAUGAGGAUCACCCAUGUGGAGAGACUG [Eternabot (L1) Solution 59] (Eterna round: R97, puzzle: Exclusion 6) | 39.2 nM | 20.9 nM | – | – | – | –
AGAUGGCGAGGAUAUACAUGAGGAUCACCCAUGUGAAUAAUAAUAGUGAGGAAGAAAAGUAGAAGGCGCUGUCA [Mat - Exclusion 3 - Mod of Salish D34] (puzzle: Exclusion 3) | – | – | 42.1 nM | – | 357 nM | 41.2 nM
UAAAAUAGUGUGAGGAUAUGCUGGUCCUUGGAUCAGCAGAAGGCACAUGAGGAUCACCCAUGUAGAUAAUAAUA [Mat - Exclusion 4 - JL Mod - D26] (puzzle: Brourd's mod of Exclusion 4) | – | – | 49.6 nM | – | 189 nM | 78 nM
CAUUACUGCAAGCUUUGGGACAUGAGGAUCACCCAUGUUCGUCUUAUUGAUCUAGGUACGCUGACGUACCUAGAUCU [JL-sv1-2.27 Brourd mod] (puzzle: Sensor v3, turn-off variant 1) | – | – | 28.9 nM | – | 17 nM | 15.4 nM
GAAGAAGAGAGAAAAGAAAACAUGAGGAUCACCCAUGUGAGAAGAUGAGGGUGUAGCAGGCUUUAUGCUCGUCUUAU (puzzle: Sensor v3, turn-off variant 1) | – | – | 78.5 nM | – | 27.5 nM | 27.9 nM
UAAAAGCUAGGAUAUACAUGAGGAUCACCCAUGUAAUCUCUCACUUACACGGAGGAUCGUAGAAGGAGCACAAA [Inlaveti] (puzzle: Exclusion 3) | – | – | 20.3 nM | – | – | –
UAUUAGUAAGGAUAUGAGUCGUAGAACAAUAGUACUACGUCUCAGAAGGUACAUGAGGAUCACCCAUGUUCAUU [Mod of Fisker 2 - Jieux - Exclusion 4] (Eterna round: R97, puzzle: Exclusion 4) | 27.4 nM | 19 nM | – | – | – | –
CCUUUGUCAGGAUAUCAGAAAACGCCCGUAGGGAGCGCAAAUGAGAAGGGACAUGAGGAUCACCCAUGUAAAGA [Edvereri] (puzzle: Exclusion 4) | – | – | 50.1 nM | – | 204 nM | 53 nM
AGAAGUAGAAACCGAUCCUACAUGAGGAUCACCCAUGUAGCAAGACGUGCACGCGAAGCUCGUCAGACUACCAGAAC [salish99_TOv1_r3_008] (puzzle: Sensor v3, turn-off variant 1) | – | – | 264 nM | – | 229 nM | 421 nM
UUCAUUGCAGGAUAUACAUGAGGAUCACCCAUGUGACCAGUGGCCUGUUGCGGCUCCAGUAGAAGGGCAUGUGU [Eternabot (L2) Solution 89] (Eterna round: R97, puzzle: Exclusion 3) | 63.8 nM | 61.2 nM | – | – | – | –
CAGCUGAAAGUCAGGAUAUCUAGAGCGAUAGCUCUAGAGAAGGGACAUGAGGAUCACCCAUGUGGUCACAGCUG [BmEx4/5-A4] (Eterna round: R97, puzzle: Brourd's mod of Exclusion 4) | 169 nM | 648 nM | – | – | – | –
GGGCCUGGUGUAGGAUAUCGUGGGCGGUGUCGGCGAGAAGGACAUGAGGAUCACCCAUGUCCGGGCUCGGGUUCCCGGGCUUGG [second try -37.9 kcal and 14% A] (Eterna round: R96, puzzle: Exclusion NG 1) | 28.5 nM | 15.4 nM | – | 13 nM | – | –
AUUAAACAUGUAGGAUAUGCGUGGCAAAGCUAUGCAGAAGGACAUGAGGAUCACCCAUGUAAAAGCGUCUGCGUACAGAUGCAA [Mat - Exclusion NG 1 - Mod of JL - D86] (Eterna round: R96, puzzle: Exclusion NG 1) | 314 nM | 41.3 nM | – | 30.7 nM | – | –
